Key:
[1] = biological target: Anti-σ domain (ASD) of Mycobacterium tuberculosis RslA (residues 1–108), Zn2+-bound (Mycobacterium tuberculosis) (UniProt P9WJ67); test: crystal structure
[2] = biological target: RsrA (Streptomyces coelicolor) (UniProt Q7AKG8); settings: cited from earlier work
Sequence of RsrA (Streptomyces coelicolor) (Q7AKG8 whole entry): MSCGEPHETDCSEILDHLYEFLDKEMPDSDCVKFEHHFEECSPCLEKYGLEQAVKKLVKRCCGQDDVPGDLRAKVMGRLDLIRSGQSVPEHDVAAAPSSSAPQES

Sequence of Anti-σ domain (ASD) of Mycobacterium tuberculosis RslA (residues 1–108), Zn2+-bound (Mycobacterium tuberculosis) (P9WJ67 1-108): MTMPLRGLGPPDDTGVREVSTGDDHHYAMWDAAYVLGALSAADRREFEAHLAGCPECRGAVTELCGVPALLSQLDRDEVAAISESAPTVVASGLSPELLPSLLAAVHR
Sequence of σR (Q7AKG9 whole entry): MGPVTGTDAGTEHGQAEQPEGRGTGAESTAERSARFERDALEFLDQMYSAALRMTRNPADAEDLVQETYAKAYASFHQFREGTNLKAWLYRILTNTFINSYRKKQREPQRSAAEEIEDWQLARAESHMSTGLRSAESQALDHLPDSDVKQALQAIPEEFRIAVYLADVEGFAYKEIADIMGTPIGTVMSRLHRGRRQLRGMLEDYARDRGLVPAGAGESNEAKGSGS

Row | Substance | stoichiometry N [1] | Kd [2] [nM]
1 | σ4^L, the −35-element recognition domain of Mycobacterium tuberculosis σ^L (from UniProt P9WGH5 99-177) (domain or fragment) | 1 | –
2 | σR (from UniProt Q7AKG9) | – | 10

From publication PMC2877774
